According to publication PMC7872222:
pKd: −log10 of the molar value.

Biological target: biotinylated FYCO1 peptide (human)
Assay: BLI

pKd: 5.85
Substance: GABARAP (from UniProt O95166 1-117) (natural protein)
